Our source for the Kd, koff and kon values is US20250019427A1.

Assay [1] concerns the target T1, Human GDF15 Fc (human) (UniProt Q99988).
T1 sequence (chain, biotinylated (EZ-Link Sulfo-NHS-Biotinylation Kit) where printed as biotinylated): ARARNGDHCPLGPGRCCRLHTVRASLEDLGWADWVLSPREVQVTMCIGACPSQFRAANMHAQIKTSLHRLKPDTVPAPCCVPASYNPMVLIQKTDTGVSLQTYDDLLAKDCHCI
Nature of the assay: Octet BLI, IgG on tip, avid. For orientation: In BLI a coated tip is dipped into the sample, and binding shifts an interference pattern.

Assay [2] deals with T1, Human GDF15 Fc (human). The assay can be described thus: Octet BLI, Fab monovalent.
Assay [3] has as its target T1, Human GDF15 Fc (human). Nature of the assay: SPR Biacore, Fab monovalent. (In general: SPR reads the build-up and loss of mass on a sensor chip optically.)

As usually defined, the Kd is a measure of binding affinity in units of concentration. The koff is the first-order rate constant of dissociation. Lower therefore signals slow dissociation. What is called kon is the second-order rate constant of association.

B1: Clone K IgG (antibody, V domains shown)
VH: QVQLVQSGAEVKKPGASVKVSCKASGYTFTNEGISWVRQAPGQGLEWMGWISAYTADTFYAQKLQGRVTMTTDTSTSTAYMELRSLRSDDTAVYYCARTRHDTSGLRFDYWGQGTLVTVSS
VL: DIQMTQSPSSVSASVGDRVTITCRASQGIDSWLAWYQQKPGKAPKLLIYAASSLQSGVPSRFSGSGSGTDFTLTISSLQPEDFATYYCQQVHSFPITFGGGTKVEIKR
In the assay with Human GDF15 Fc (human) [1], B1 registered a Kd of 0.271 nM. This lies in the sub-nanomolar range.

B2: Clone L IgG (antibody, V domains shown)
VH: QVQLVQSGAEVKKPGASVKVSCKASGYTFASYDIIWVRQAPGQGLEWMGWISALSGDTVYAQKLQGRVTMTTDTSTSTAYMELRSLRSDDTAVYYCARTRHDTSGIRFDYWGQGTLVTVSS
VL: DIQMTQSPSSVSASVGDRVTITCRASQGIDSWLAWYQQKPGKAPKLLIYAASSLQSGVPSRFSGSGSGTDFTLTISSLQPEDFATYYCQQVHSFPITFGGGTKVEIKR
For the molecule B2, the Kd with Human GDF15 Fc (human) [1] amounted to 0.325 nM. This Kd and that of the molecule before are within 1.5-fold of each other.

B3: Clone P IgG (antibody, V domains shown)
VH: QVQLVQSGAEVKKPGATVKVSCKASGYTFDSYGIHWVRQAPGQGLEWMGWITAYSGDTVYAQKLQGRVTMTTDTSTSTAYMELRSLRSDDTAVYYCARESGQTSSALGPWGQGTLVTVSS
VL: DIQMTQSPSSVSASVGDRVTITCRASQGISRWLAWYQQKPGKAPKLLIYAASSLQSGVPSRFSGSGSGTDFTLTISSLQPEDFATYYCQQGASFPLTFGGGTKVEIKR
Take B3: the Kd with Human GDF15 Fc (human) [1] amounted to 0.274 nM.

B4: Clone O IgG (antibody, V domains shown)
VH: QVQLVQSGAEVKKPGATVKVSCKASGYTFDSLGMSWVRQAPGQGLEWMGYISTYSGDTVYAQKLQGRVTMTTDTSTSTAYMELRSLRSDDTAVYYCARESGQQVSALDPWGQGTLVTVSS
VL: DIQMTQSPSSVSASVGDRVTITCRASQGISRWLAWYQQKPGKAPKLLIYAASSLQSGVPSRFSGSGSGTDFTLTISSLQPEDFATYYCQQGASFPLTFGGGTKVEIKR
As to B4, the Kd with Human GDF15 Fc (human) [1] worked out at 0.379 nM.

B5: Clone E Fab (Fab, V domains shown)
VH: QVQLVQSGAEVKKPGASVKVSCKASGYTFTSYGINWVRQAPGQGLEWMGWITAYSGDTNYAQKLQGRVTMTTDTSTSTAYMELRSLRSDDTAVYYCARGPGQYADVDVWGQGTMVTVSS
VL: DIQMTQSPSSVSASVGDRVTITCRASQGISSWLAWYQQKPGKAPKLLIYAASSLQSGVPSRFSGSGSGTDFTLTISSLQPEDFATYYCQQANSFPITFGGGTKVEIK
Turning to B5, the Kd in the assay with Human GDF15 Fc (human) [2] worked out at 0.921 nM. In the assay with Human GDF15 Fc (human) [3], this molecule gave a Kd of 0.0331 nM, a koff of 8.71e-05 s⁻¹ and a kon of 2.63e+06 M⁻¹ s⁻¹.

B6: Clone S Fab (Fab, V domains shown)
VH: QVQLVQSGAEVKKPGASVKVSCKASGYTFTSYGINWVRQAPGQGLEWMGWITAYSGDTNYAQKLQGRVTMTTDTSTSTAYMELRSLRSDDTAVYYCARGPGQYADVDVWGQGTMVTVSS
VL: DIQLTQSPSSVSASVGDRVTITCRASQGISPWLAWYQQKPGKAPKLLIYAASSLQSGVPSRFSGSGSGTDFTLTISSLQPEDFATYYCQQANSFPITFGGGTKVEIK
For the molecule B6, the Kd with Human GDF15 Fc (human) [2] was found to be 0.48 nM. Besides, in the assay with Human GDF15 Fc (human) [3], the Kd came out at 0.0369 nM, the koff was determined as 4.93e-05 s⁻¹ and the kon was found to be 1.34e+06 M⁻¹ s⁻¹.

B7: Clone P Fab (Fab, V domains shown)
VH: QVQLVQSGAEVKKPGATVKVSCKASGYTFDSYGIHWVRQAPGQGLEWMGWITAYSGDTVYAQKLQGRVTMTTDTSTSTAYMELRSLRSDDTAVYYCARESGQTSSALGPWGQGTLVTVSS
VL: DIQMTQSPSSVSASVGDRVTITCRASQGISRWLAWYQQKPGKAPKLLIYAASSLQSGVPSRFSGSGSGTDFTLTISSLQPEDFATYYCQQGASFPLTFGGGTKVEIK
In the assay with Human GDF15 Fc (human) [2], B7 returned a dissociation constant Kd of 3.68 nM. In the assay with Human GDF15 Fc (human) [3], this molecule came in with a Kd of 0.126 nM, a koff of 0.0021 s⁻¹ and a kon of 1.66e+07 M⁻¹ s⁻¹.

B8: Clone J IgG (antibody, V domains shown)
VH: QVQLVQSGAEVKKPGASVKVSCKASGYTFTSYGINWVRQAPGQGLEWMGWIDAYSGSTNYAQKLQGRVTMTTDTSTSTAYMELRSLRSDDTAVYYCARGPGQYADVDVWGQGTMVTVSS
VL: DIQMTQSPSSVSASVGDRVTITCRASQGISSWLAWYQQKPGKAPKLLIYAASSLQSGVPSRFSGSGSGTDFTLTISSLQPEDFATYYCQQANSFPITFGGGTKVEIKR
Consider B8, for which the Kd with Human GDF15 Fc (human) [1] is 0.276 nM.

B9: Clone E IgG (antibody, V domains shown)
VH: QVQLVQSGAEVKKPGASVKVSCKASGYTFTSYGINWVRQAPGQGLEWMGWITAYSGDTNYAQKLQGRVTMTTDTSTSTAYMELRSLRSDDTAVYYCARGPGQYADVDVWGQGTMVTVSS
VL: DIQMTQSPSSVSASVGDRVTITCRASQGISSWLAWYQQKPGKAPKLLIYAASSLQSGVPSRFSGSGSGTDFTLTISSLQPEDFATYYCQQANSFPITFGGGTKVEIKR
On to B9, for which the Kd with Human GDF15 Fc (human) [1] came out at 0.278 nM. This Kd and that of the molecule before are within 1.5-fold of each other.

B10: Clone I Fab (Fab, V domains shown)
VH: QVQLVQSGAEVKKPGASVKVSCKASGYTFTDEGINWVRQAPGQGLEWMGWITAYSGDTVYAQKLQGRVTMTTDTSTSTAYMELRSLRSDDTAVYYCARGPGQYADVDVWGQGTMVTVSS
VL: DIQMTQSPSSVSASVGDRVTITCRASQGISSWLAWYQQKPGKAPKLLIYAASSLQSGVPSRFSGSGSGTDFTLTISSLQPEDFATYYCQQANSFPITFGGGTKVEIK
B10 showed a Kd in the assay with Human GDF15 Fc (human) [2] of 1.25 nM. In the assay with Human GDF15 Fc (human) [3], this molecule yielded a Kd of 0.0672 nM, an off-rate constant (koff) of 0.000259 s⁻¹ and a kon of 3.85e+06 M⁻¹ s⁻¹.

B11: Clone L Fab (Fab, V domains shown)
VH: QVQLVQSGAEVKKPGASVKVSCKASGYTFASYDIIWVRQAPGQGLEWMGWISALSGDTVYAQKLQGRVTMTTDTSTSTAYMELRSLRSDDTAVYYCARTRHDTSGIRFDYWGQGTLVTVSS
VL: DIQMTQSPSSVSASVGDRVTITCRASQGIDSWLAWYQQKPGKAPKLLIYAASSLQSGVPSRFSGSGSGTDFTLTISSLQPEDFATYYCQQVHSFPITFGGGTKVEIK
As to B11, in the assay with Human GDF15 Fc (human) [2], the Kd was determined as 1.58 nM. Besides, in the assay with Human GDF15 Fc (human) [3], the Kd was determined as 0.144 nM, the koff turned out to be 0.000576 s⁻¹ and the kon was 3.99e+06 M⁻¹ s⁻¹.

B12: Clone O Fab (Fab, V domains shown)
VH: QVQLVQSGAEVKKPGATVKVSCKASGYTFDSLGMSWVRQAPGQGLEWMGYISTYSGDTVYAQKLQGRVTMTTDTSTSTAYMELRSLRSDDTAVYYCARESGQQVSALDPWGQGTLVTVSS
VL: DIQMTQSPSSVSASVGDRVTITCRASQGISRWLAWYQQKPGKAPKLLIYAASSLQSGVPSRFSGSGSGTDFTLTISSLQPEDFATYYCQQGASFPLTFGGGTKVEIK
In the assay with Human GDF15 Fc (human) [2], B12 yielded a Kd of 0.216 nM. In the assay with Human GDF15 Fc (human) [3], this molecule had a Kd of 0.0341 nM, a koff of 7.11e-05 s⁻¹ and a kon of 2.08e+06 M⁻¹ s⁻¹.

B13: Clone K Fab (Fab, V domains shown)
VH: QVQLVQSGAEVKKPGASVKVSCKASGYTFTNEGISWVRQAPGQGLEWMGWISAYTADTFYAQKLQGRVTMTTDTSTSTAYMELRSLRSDDTAVYYCARTRHDTSGLRFDYWGQGTLVTVSS
VL: DIQMTQSPSSVSASVGDRVTITCRASQGIDSWLAWYQQKPGKAPKLLIYAASSLQSGVPSRFSGSGSGTDFTLTISSLQPEDFATYYCQQVHSFPITFGGGTKVEIK
As to B13, in the assay with Human GDF15 Fc (human) [2], the Kd amounted to 2.11 nM. In the assay with Human GDF15 Fc (human) [3], this molecule displayed a Kd of 0.23 nM, a dissociation rate constant (koff) of 0.00112 s⁻¹ and a kon of 4.87e+06 M⁻¹ s⁻¹.

B14: Clone T Fab (Fab, V domains shown)
VH: QVQLVQSGAEVKKPGASVKVSCKASGYTFTSYGINWVRQAPGQGLEWMGWITAYSGDTNYAQKLQGRVTMTTDTSTSTAYMELRSLRSDDTAVYYCARGPGQYADVDVWGQGTMVTVSS
VL: DIQMTQSPSSVSASVGDRVTITCRASQGISSWLAWYQQKPGKAPKLLIYAASSLQSGVPSRFSGSGSGTDFTLTISSLQPEDFATYYCQQASQFPITFGGGTKVEIK
B14 returned a Kd in the assay with Human GDF15 Fc (human) [2] of 0.613 nM. In addition, in the assay with Human GDF15 Fc (human) [3], the Kd worked out at 0.0411 nM, the koff turned out to be 4.52e-05 s⁻¹ and the kon was determined as 1.1e+06 M⁻¹ s⁻¹.

B15: Clone I IgG (antibody, V domains shown)
VH: QVQLVQSGAEVKKPGASVKVSCKASGYTFTDEGINWVRQAPGQGLEWMGWITAYSGDTVYAQKLQGRVTMTTDTSTSTAYMELRSLRSDDTAVYYCARGPGQYADVDVWGQGTMVTVSS
VL: DIQMTQSPSSVSASVGDRVTITCRASQGISSWLAWYQQKPGKAPKLLIYAASSLQSGVPSRFSGSGSGTDFTLTISSLQPEDFATYYCQQANSFPITFGGGTKVEIKR
The molecule B15 gave a Kd in the assay with Human GDF15 Fc (human) [1] of 0.262 nM. This counts as sub-nanomolar.

B16: Clone J Fab (Fab, V domains shown)
VH: QVQLVQSGAEVKKPGASVKVSCKASGYTFTSYGINWVRQAPGQGLEWMGWIDAYSGSTNYAQKLQGRVTMTTDTSTSTAYMELRSLRSDDTAVYYCARGPGQYADVDVWGQGTMVTVSS
VL: DIQMTQSPSSVSASVGDRVTITCRASQGISSWLAWYQQKPGKAPKLLIYAASSLQSGVPSRFSGSGSGTDFTLTISSLQPEDFATYYCQQANSFPITFGGGTKVEIK
The molecule B16 yielded a Kd with Human GDF15 Fc (human) [2] of 1.28 nM. In the assay with Human GDF15 Fc (human) [3], the Kd is 0.0884 nM, the koff was 0.000404 s⁻¹ and the kon was 4.57e+06 M⁻¹ s⁻¹.
